Experimental data from patent US20200199204A1.

Tests used:
Experiment in all cases: cell-based or functional assay
[1] = target: HIV-1 Env of 0260.v5.c36 (HIV-1)
[2] = target: HIV-1 Env of CNE3 (HIV-1)
[3] = target: HIV-1 Env of THRO.18 (HIV-1)
[4] = target: HIV-1 Env of RW020.2 (HIV-1)
[5] = target: HIV-1 Env of ZM214.15 (HIV-1)
[6] = target: HIV-1 Env of SC422.8 (HIV-1)
[7] = target: HIV-1 Env of CAP244.D3 (HIV-1)
[8] = target: HIV-1 Env of ZM135.10a (HIV-1)
[9] = target: HIV-1 Env of C1080.c3 (HIV-1)
[10] = target: HIV-1 Env of MB539.2B7 (HIV-1)
[11] = target: HIV-1 Env of CAP256.SU (HIV-1)
[12] = target: HIV-1 Env of REJO.67 (HIV-1)
[13] = target: HIV-1 Env of CAAN.A2 (HIV-1)
[14] = target: HIV-1 Env of UG037.8 (HIV-1)
[15] = target: HIV-1 Env of QH0692.42 (HIV-1)
[16] = target: HIV-1 Env of TH976.17 (HIV-1)
[17] = target: HIV-1 Env of BG505.w6m (HIV-1)
[18] = target: HIV-1 Env of RHPA.7 (HIV-1)
[19] = target: HIV-1 Env of Q259.d2.17 (HIV-1)
[20] = target: HIV-1 Env of 191821.E6.1 (HIV-1)
[21] = target: HIV-1 Env of ZM53.12 (HIV-1)
[22] = target: HIV-1 Env of 6535.3 (HIV-1)
[23] = target: HIV-1 Env of CAP210.E8 (HIV-1)
[24] = target: HIV-1 Env of Q842.d12 (HIV-1)
[25] = target: HIV-1 Env of ZM233.6 (HIV-1)
[26] = target: HIV-1 Env of CAP45.G3 (HIV-1)
[27] = target: HIV-1 Env of DU156.12 (HIV-1)
[28] = target: HIV-1 Env of 6405.v4.c34 (HIV-1)
[29] = target: HIV-1 Env of TRJO.58 (HIV-1)
[30] = target: HIV-1 Env of ZM197.7 (HIV-1)
[31] = target: HIV-1 Env of DU172.17 (HIV-1)
[32] = target: HIV-1 Env of CAP256.PI (HIV-1)
[33] = target: HIV-1 Env of AC10.29 (HIV-1)
[34] = target: HIV-1 Env of CM244.ec1 (HIV-1)
[35] = target: HIV-1 Env of WITO.33 (HIV-1)
[36] = target: HIV-1 Env of KER2018.11 (HIV-1)
[37] = target: HIV-1 Env of Q168.a2 (HIV-1)
[38] = target: HIV-1 Env of 96ZM651.02 (HIV-1)
[39] = target: HIV-1 Env of Q461.e2 (HIV-1)
[40] = target: HIV-1 Env of DU422.01 (HIV-1)
[41] = target: HIV-1 Env of ZM249.1 (HIV-1)
[42] = target: HIV-1 Env of Q769.d22 (HIV-1)
[43] = target: HIV-1 Env of ZM109.4 (HIV-1)
[44] = target: HIV-1 Env of 3016.V5.c36 (HIV-1)
[45] = target: HIV-1 Env of KER2008.12 (HIV-1)
[46] = target: HIV-1 Env of TRO.11 (HIV-1)
[47] = target: HIV-1 Env of MB201 (HIV-1)
[48] = target: HIV-1 Env of PVO.04 (HIV-1)
[49] = target: HIV-1 Env of Q23.17 (HIV-1)

CAP256-VRC26.17 (antibody)
IC50 [1]: > 50 µg/mL
IC50 [2]: > 50 µg/mL
IC50 [3]: > 50 µg/mL
IC50 [4]: > 50 µg/mL
IC50 [5]: > 50 µg/mL
IC50 [6]: > 50 µg/mL
IC50 [7]: > 50 µg/mL
IC50 [8]: > 50 µg/mL
IC50 [9]: > 50 µg/mL
IC50 [10]: > 50 µg/mL
IC50 [11]: 0.003 µg/mL
IC50 [12]: > 50 µg/mL
IC50 [13]: > 50 µg/mL
IC50 [14]: > 50 µg/mL
IC50 [15]: > 50 µg/mL
IC50 [16]: > 50 µg/mL
IC50 [17]: 0.4 µg/mL
IC50 [18]: > 50 µg/mL
IC50 [19]: 0.076 µg/mL
IC50 [20]: 35.4 µg/mL
IC50 [21]: 0.005 µg/mL
IC50 [22]: > 50 µg/mL
IC50 [23]: 0.006 µg/mL
IC50 [24]: > 50 µg/mL
IC50 [25]: 0.006 µg/mL
IC50 [26]: > 50 µg/mL
IC50 [27]: 18.7 µg/mL
IC50 [28]: > 50 µg/mL
IC50 [29]: > 50 µg/mL
IC50 [30]: 2.2 µg/mL
IC50 [31]: > 50 µg/mL
IC50 [32]: > 50 µg/mL
IC50 [33]: > 50 µg/mL
IC50 [34]: 0.14 µg/mL
IC50 [35]: > 50 µg/mL
IC50 [36]: 0.064 µg/mL
IC50 [37]: > 50 µg/mL
IC50 [38]: > 50 µg/mL
IC50 [39]: > 50 µg/mL
IC50 [40]: 0.51 µg/mL
IC50 [41]: 1.23 µg/mL
IC50 [42]: > 50 µg/mL
IC50 [43]: > 50 µg/mL
IC50 [44]: 0.011 µg/mL
IC50 [45]: > 50 µg/mL
IC50 [46]: > 50 µg/mL
IC50 [47]: > 50 µg/mL
IC50 [48]: > 50 µg/mL
IC50 [49]: 6.42 µg/mL
